Assay results taken from paper PMC3709506, “Comparative cross-linking and mass spectrometry of an intact F-type ATPase suggest a role for phosphorylation” (Nature Communications, 2013).
Values belong to the binder of their own block, whether it stands above or below them.

B5: chloroplast ATP synthase (cATPase) subunit β, untreated enzyme (natural protein, Spinacia oleracea, UniProt P00825 1-498, looked up)
chain: MRINPTTSDPGVSTLEKKNLGRIAQIIGPVLDVAFPPGKMPNIYNALIVKGRDTAGQPMNVTCEVQQLLGNNRVRAVAMSATDGLTRGMEVIDTGAPLSVPVGGATLGRIFNVLGEPVDNLGPVDTRTTSPIHRSAPAFTQLDTKLSIFETGIKVVDLLAPYRRGGKIGLFGGAGVGKTVLIMELINNIAKAHGGVSVFGGVGERTREGNDLYMEMKESGVINEQNIAESKVALVYGQMNEPPGARMRVGLTALTMAEYFRDVNEQDVLLFIDNIFRFVQAGSEVSALLGRMPSAVGYQPTLSTEMGSLQERITSTKEGSITSIQAVYVPADDLTDPAPATTFAHLDATTVLSRGLAAKGIYPAVDPLDSTSTMLQPRIVGEEHYEIAQRVKETLQRYKELQDIIAILGLDELSEEDRLTVARARKIERFLSQPFFVAEVFTGSPGKYVGLAETIRGFQLILSGELDSLPEQAFYLVGNIDEATAKAMNLEMESKLKK
modifications: phosphosites identified at S8, T54
notes: ATP synthase subunit beta, chloroplastic, Spinacia oleracea; K498 is called the carboxy-terminal residue; Three copies stand in the F1 head (α3β3); also called β-subunit; source: purified from spinach leaves as part of the intact F1FO chloroplast ATP synthase
B6: cATPase subunit β, dephosphorylated enzyme (natural protein, Spinacia oleracea, UniProt P00825 1-498, looked up)
chain: MRINPTTSDPGVSTLEKKNLGRIAQIIGPVLDVAFPPGKMPNIYNALIVKGRDTAGQPMNVTCEVQQLLGNNRVRAVAMSATDGLTRGMEVIDTGAPLSVPVGGATLGRIFNVLGEPVDNLGPVDTRTTSPIHRSAPAFTQLDTKLSIFETGIKVVDLLAPYRRGGKIGLFGGAGVGKTVLIMELINNIAKAHGGVSVFGGVGERTREGNDLYMEMKESGVINEQNIAESKVALVYGQMNEPPGARMRVGLTALTMAEYFRDVNEQDVLLFIDNIFRFVQAGSEVSALLGRMPSAVGYQPTLSTEMGSLQERITSTKEGSITSIQAVYVPADDLTDPAPATTFAHLDATTVLSRGLAAKGIYPAVDPLDSTSTMLQPRIVGEEHYEIAQRVKETLQRYKELQDIIAILGLDELSEEDRLTVARARKIERFLSQPFFVAEVFTGSPGKYVGLAETIRGFQLILSGELDSLPEQAFYLVGNIDEATAKAMNLEMESKLKK
notes: ATP synthase subunit beta, chloroplastic, Spinacia oleracea; as m2 but treated with phosphatase; The whole complex was treated with the phosphatase; also called β (dephosphorylated form)
B7: cATPase subunit α, dephosphorylated enzyme (natural protein, Spinacia oleracea, UniProt P06450 1-507, looked up)
chain: MATIRADEISKIIRERIEGYNREVKVVNTGTVLQVGDGIARIHGLDEVMAGELVEFEEGTIGIALNLESNNVGVVLMGDGLMIQEGSSVKATGRIAQIPVSEAYLGRVINALAKPIDGRGEITASESRLIESPAPGIMSRRSVYEPLQTGLIAIDAMIPVGRGQRELIIGDRQTGKTAVATDTILNQQGQNVICVYVAIGQKASSVAQVVTNFQERGAMEYTIVVAETADSPATLQYLAPYTGAALAEYFMYRERHTLIIYDDLSKQAQAYRQMSLLLRRPPGREAYPGDVFYLHSRLLERAAKLSSLLGEGSMTALPIVETQAGDVSAYIPTNVISITDGQIFLSADLFNAGIRPAINVGISVSRVGSAAQIKAMKKVAGKLKLELAQFAELEAFAQFASDLDKATQNQLARGQRLRELLKQPQSAPLTVEEQVMTIYTGTNGYLDSLELDQVRKYLVELRTYVKTNKPEFQEIISSTKTFTEEAEALLKEAIQEQMERFLLQEQA
notes: ATP synthase subunit alpha, chloroplastic, Spinacia oleracea; as m1 but treated with phosphatase; The whole complex was treated; also called α (dephosphorylated form)

How the values were obtained:
Settings in all cases: both partners purified
[1] = target: T1, chloroplast ATP synthase (cATPase) subunit α, untreated enzyme (Spinacia oleracea, UniProt P06450 1-507, phosphosites identified at S127, Y196, S369, T442); experiment: cross-linking; untreated cATPase, 1:1 mixture of 2.5 mM BS3-d4 and 2.5 mM BS3-d0, 1 h at room temperature; NuPAGE gel, in-gel digestion, LC-MS/MS, MassMatrix search, manual validation
T1 construct: ATP synthase subunit alpha, chloroplastic, Spinacia oleracea; Three copies stand in the F1 head (α3β3); also called α subunit; source: purified from spinach leaves as part of the intact F1FO chloroplast ATP synthase

[2] = target: B5; experiment: as above
[3] = target: B6; experiment: cross-linking; comparative: dephosphorylated cATPase (calf intestinal alkaline phosphatase, 37 °C) cross-linked with 2.5 mM deuterated BS3, untreated cATPase with non-deuterated BS3, pooled; areas of extracted ion chromatograms of heavy and light cross-links compared
[4] = target: B7; experiment: as above
[5] = target: T2, chloroplast ATP synthase (cATPase) subunit γ (Spinacia oleracea, UniProt P05435 42-364); experiment: cross-linking; untreated cATPase, 1:1 mixture of 2.5 mM BS3-d4 and 2.5 mM BS3-d0, 1 h at room temperature; NuPAGE gel, in-gel digestion, LC-MS/MS, MassMatrix search, manual validation
T2 construct: ATP synthase gamma chain, chloroplastic, Spinacia oleracea; also called γ-subunit; source: purified from spinach leaves as part of the intact F1FO chloroplast ATP synthase
T2 sequence (looked up): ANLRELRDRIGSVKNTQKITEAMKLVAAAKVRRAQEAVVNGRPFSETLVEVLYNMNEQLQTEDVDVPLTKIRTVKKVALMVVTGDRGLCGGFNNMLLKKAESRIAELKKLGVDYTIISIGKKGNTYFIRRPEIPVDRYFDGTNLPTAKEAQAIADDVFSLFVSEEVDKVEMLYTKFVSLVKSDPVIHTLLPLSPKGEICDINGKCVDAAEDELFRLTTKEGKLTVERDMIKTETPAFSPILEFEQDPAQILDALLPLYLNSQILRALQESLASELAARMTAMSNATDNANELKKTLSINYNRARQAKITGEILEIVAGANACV

B2: cATPase subunit II, dephosphorylated enzyme (natural protein, Spinacia oleracea, UniProt P31853 76-222, looked up)
chain: EEIEKASLFDFNLTLPIIMAEFLFLMFALDKIYYTPLGDFMDKRDASIKEQLSGVKDTSSEVKQLEEQANAVMRAARAEISAALNKMKKETQLEVEAKLAEGRKKIEVELQEALGSLEQQKEDTIKSLDSQISALSDDIVKKVLPVS
notes: ATP synthase subunit b' (CF0 subunit II), chloroplastic, Spinacia oleracea; as m6 but treated with phosphatase; The whole complex was treated with the phosphatase; also called II (dephosphorylated form)
binding result [3]: binds | binding result [4]: binds

Binder: B5
binding result [1]: binds

Binder: B6
binding result [4]: binds

Binder: B7
fold decrease of cross-link intensity against the untreated enzyme (two cross-links, β loops to α C-terminal domain) [3]: > 10 fold | fold decrease of the intensity of the K378-K498 cross-link against the untreated enzyme [3]: ~5 fold

More lines, now with the values ahead:

binding result [1]: binds | binding result [2]: binds
B1: chloroplast ATP synthase (cATPase) subunit II, untreated enzyme (natural protein, Spinacia oleracea, UniProt P31853 76-222, looked up)
chain: EEIEKASLFDFNLTLPIIMAEFLFLMFALDKIYYTPLGDFMDKRDASIKEQLSGVKDTSSEVKQLEEQANAVMRAARAEISAALNKMKKETQLEVEAKLAEGRKKIEVELQEALGSLEQQKEDTIKSLDSQISALSDDIVKKVLPVS
modifications: phosphosites identified at S122, S211
notes: ATP synthase subunit b' (CF0 subunit II), chloroplastic, Spinacia oleracea; also called stator subunit II; peripheral stalk subunit II; source: purified from spinach leaves as part of the intact F1FO chloroplast ATP synthase

binding result [3]: binds | binding result [4]: binds
B3: cATPase subunit ε, dephosphorylated enzyme (natural protein, Spinacia oleracea, UniProt P00833 1-134, looked up)
chain: MTLNLCVLTPNRSIWNSEVKEIILSTNSGQIGVLPNHAPTATAVDIGILRIRLNDQWLTLALMGGFARIGNNEITILVNDAERGSDIDPQEAQQTLEIAEANLRKAEGKRQKIEANLALRRARTRVEASNTISS
notes: ATP synthase epsilon chain, chloroplastic, Spinacia oleracea; as m4 but treated with phosphatase; The whole complex was treated with the phosphatase; also called ε (dephosphorylated form)

binding result [1]: binds | binding result [5]: binds | binding result [2]: binds
B4: chloroplast ATP synthase (cATPase) subunit ε, untreated enzyme (natural protein, Spinacia oleracea, UniProt P00833 1-134, looked up)
chain: MTLNLCVLTPNRSIWNSEVKEIILSTNSGQIGVLPNHAPTATAVDIGILRIRLNDQWLTLALMGGFARIGNNEITILVNDAERGSDIDPQEAQQTLEIAEANLRKAEGKRQKIEANLALRRARTRVEASNTISS
modifications: phosphosite identified at S13
notes: ATP synthase epsilon chain, chloroplastic, Spinacia oleracea; also called ε-subunit; source: purified from spinach leaves as part of the intact F1FO chloroplast ATP synthase
